Measurements from publication PMC8965865.
Changes are numbered by the printed parent chain.

Experiments:
[1] = biological target: T1, Fur (Mycobacterium smegmatis mc2155) (UniProt A0QXX6); assay: EMSA; details: 20 mM Tris HCl pH 8.0, 1 mM DTT, 50 mM KCl, 5 mM MgCl2, 20 ul, 30 min at 30 C
T1 sequence: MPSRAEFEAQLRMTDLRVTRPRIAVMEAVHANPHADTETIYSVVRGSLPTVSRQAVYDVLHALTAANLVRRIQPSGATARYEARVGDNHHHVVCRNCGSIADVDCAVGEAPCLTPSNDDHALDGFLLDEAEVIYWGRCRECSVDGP

[2] = biological target: T2, mFur (A28V Fur) A28V (Mycobacterium smegmatis mc251) (UniProt A0QXX6); assay: EMSA; details: 20 mM Tris HCl pH 8.0, 1 mM DTT, 50 mM KCl, 5 mM MgCl2, 20 ul, 30 min at 30 C
T2 sequence: T1 sequence with A28V

For “CATCCGCAGTTGGGCTTCGAACTCCGCCCGAGAGGGCATGCCGCCCACCTTGCTCGCCCGATTGGACGCAGTCAAGTCTTTCTCGAATTCGGTATGTCGGTGCATGTCTCGCTCCGATCTGGGAGCTCGGATGGGAGGCGCAAGAGCGAGCCGCGTTCGGCCATTGTCGGCCGACCGCTTCTGCGCGCAGGCTTGCTGCGGCGGTTACCCCGATGTGCCCGACGCTATACCTCCAGCCGAAGAAATTTCTTGCAATGGTTGTTTTCCAACG (double strand) [fur promoter DNA fragment]”, the binding [1] was “binds” and the binding [2] was “binds more weakly”.
